In patent US20240270821A1, “GIP/GLP1/GCG TRI-RECEPTOR AGONISTS AND USES THEREOF” (priority 2023, published 2024):
Substitutions are numbered along the chain they refer to. Starred links: 1 amine or outer side, 2 acyl side, 3 side chain; linkers in the order of their positions; H or OH if unused. Non-standard residues stand in square brackets, D forms with d. Groups on a side chain read outwards from the residue. No end group written: not given here. *: point of attachment. C20 diacid = O=C(O)CCCCCCCCCCCCCCCCCCC(=O)*; C18 diacid = O=C(O)CCCCCCCCCCCCCCCCC(=O)*; γGlu = O=C(O)[C@H](CCC(=O)[*:2])N[*:1]; αMeL = CC(C)C[C@](C)(N)C(=O)O; Dap = NC[C@H](N)C(=O)O; AEEA = NCCOCCOCC(=O)O; Aib = CC(C)(N)C(=O)O

B1: Example 110 (peptide)
chain: YXQGTFTSDFSXXLDKKAQXAFIEYLLEXGPSSGAPPPSGE
modifications: synthetic construct; SITE 2: note = 2-Aminoisobutyric Acid; SITE 12: note = L-ornithine; SITE 13: note = alpha-methyl-leucine; SITE 17: note = Lysine is chemically modified through conjugation of the epsilon-amino group of the Lysine side chain with (2-[2-(2-Amino-ethoxy)-ethoxy]-acetyl)-(gamma-Glu)
B2: Example 111 (peptide)
chain: B1 chain
modifications: synthetic construct; SITE 2: note = 2-Aminoisobutyric Acid; SITE 12: note = L-ornithine; SITE 13: note = alpha-methyl-leucine; SITE 17: note = Lysine is chemically modified through conjugation of the epsilon-amino group of the Lysine side chain with (2-[2-(2-Amino-ethoxy)-ethoxy]-acetyl)2-(gamma-Glu)
B3: Example 359 (peptide)
chain: B1 chain with F10Y, X29G, P31E, E41S
modifications: synthetic construct; SITE 2: note = 2-Aminoisobutyric Acid; SITE 12: note = L-ornithine; SITE 13: note = alpha-methyl-leucine; SITE 17: note = Lysine is chemically modified through conjugation of the epsilon-amino group of the Lysine side chain with (2-[2-(2-Amino-ethoxy)-ethoxy]-acetyl)-(gamma-Glu)
B4: Example 361 (peptide)
chain: B1 chain with F10Y, X12R, X29G, P31E, E41S
modifications: synthetic construct; SITE 2: note = 2-Aminoisobutyric Acid; SITE 13: note = alpha-methyl-leucine; SITE 17: note = Lysine is chemically modified through conjugation of the epsilon-amino group of the Lysine side chain with (2-[2-(2-Amino-ethoxy)-ethoxy]-acetyl)-(gamma-Glu)-CO-(CH2) 16-CO2H; SITE 20: n
B5: Example 119 (peptide)
chain: B1 chain with Y25W, X29G
modifications: synthetic construct; SITE 2: note = 2-Aminoisobutyric Acid; SITE 12: note = L-ornithine; SITE 13: note = alpha-methyl-leucine; SITE 17: note = Lysine is chemically modified through conjugation of the epsilon-amino group of the Lysine side chain with (2-[2-(2-Amino-ethoxy)-ethoxy]-acetyl)-(gamma-Glu)
B6: Example 107 (peptide)
chain: B1 chain with X29G
modifications: synthetic construct; SITE 2: note = 2-Aminoisobutyric Acid; SITE 12: note = L-ornithine; SITE 13: note = alpha-methyl-leucine; SITE 17: note = Lysine is chemically modified through conjugation of the epsilon-amino group of the Lysine side chain with (2-[2-(2-Amino-ethoxy)-ethoxy]-acetyl)2-(gamma-Glu)
B7: Example 113 (peptide)
chain: B1 chain with F10X, X12R, E28A, X29G
modifications: synthetic construct; SITE 2: note = 2-Aminoisobutyric Acid; SITE 10: note = 3-(4-Pyridyl)-L-alanine; SITE 13: note = alpha-methyl-leucine; SITE 17: note = Lysine is chemically modified through conjugation of the epsilon-amino group of the Lysine side chain with (2-[2-(2-Amino-ethoxy)-ethoxy]-acetyl)
B8: Example 334 (peptide)
chain: Y[Aib]QGTFTSDYSI[αMeL]LDKQAAK([AEEA-AEEA-γGlu-C20 diacid])QFVEWLIA[Aib]GPSSGEPPPAEG-NH2
B9: Example 712 (peptide)
chain: YXQGTXTSDXXIXLDXKAQXEFIEXLIEGGPSSGAPPPSGSE
modifications: synthetic construct; SITE 2: note = 2-Aminoisobutyric Acid; SITE 6: note = alpha-methyl-2-fluoro-L-phenylalanine; SITE 10: note = 3-(4-Pyridyl)-L-alanine; SITE 11: note = alpha-methyl-L-serine; SITE 13: note = alpha-methyl-leucine; SITE 16: note = L-ornithine; SITE 17: note = Lysine is chemically mo
B10: Example 510 (peptide)
chain: YXQGTXTSDXSILLDKKAQXAFIEYLEEGGPSSGAPPPSGTGE
modifications: synthetic construct; SITE 2: note = 2-Aminoisobutyric Acid; SITE 6: note = alpha-methyl-2-fluoro-L-phenylalanine; SITE 10: note = 3-(4-Pyridyl)-L-alanine; SITE 17: note = Lysine is chemically modified through conjugation of the epsilon-amino group of the Lysine side chain with (gamma-Glu)2-CO-(CH2)1
B11: Example 694 (peptide)
chain: YXQGTXTSDXXIXLDXKAQXEFIEXLVEGGPSSGAPPPSGS
modifications: synthetic construct; SITE 2: note = 2-Aminoisobutyric Acid; SITE 6: note = alpha-methyl-2-fluoro-L-phenylalanine; SITE 10: note = 3-(4-Pyridyl)-L-alanine; SITE 11: note = alpha-methyl-L-serine; SITE 13: note = alpha-methyl-leucine; SITE 16: note = L-ornithine; SITE 17: note = Lysine is chemically mo
B12: Example 360 (peptide)
chain: Y[Aib]QGTFTSDYS[Dap][αMeL]LDKK([AEEA-γGlu-C18 diacid])AQ[Aib]AFIEYLLEGGESSGAPPPSGS-NH2

Experiments:
Assay in all cases: cell-based or functional assay
hGLP-1R = hGLP-1R (Homo sapiens, UniProt P43220)
[1] = molecular target: human glucagon receptor (human) (UniProt P47871)
[2] = molecular target: T1, human GIP receptor (human) (UniProt P48546)
T1 sequence (looked up): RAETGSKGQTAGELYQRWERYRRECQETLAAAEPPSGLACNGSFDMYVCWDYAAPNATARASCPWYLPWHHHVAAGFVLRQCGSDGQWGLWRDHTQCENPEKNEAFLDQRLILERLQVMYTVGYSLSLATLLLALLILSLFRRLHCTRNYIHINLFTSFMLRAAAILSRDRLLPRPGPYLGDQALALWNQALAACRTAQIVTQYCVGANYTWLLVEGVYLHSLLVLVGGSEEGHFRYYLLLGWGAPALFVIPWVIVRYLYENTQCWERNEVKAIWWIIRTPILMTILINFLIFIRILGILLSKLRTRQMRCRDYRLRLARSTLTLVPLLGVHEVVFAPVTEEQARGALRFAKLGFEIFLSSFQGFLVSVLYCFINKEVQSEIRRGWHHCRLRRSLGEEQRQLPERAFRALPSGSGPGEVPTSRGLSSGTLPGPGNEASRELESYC

[3] = molecular target: human GLP-1R (SNAP-GLP-1R expressed in HEK293 cells) (human) (UniProt P43220)
Chain of human GLP-1R (SNAP-GLP-1R expressed in HEK293 cells) (human) (P43220 24-463): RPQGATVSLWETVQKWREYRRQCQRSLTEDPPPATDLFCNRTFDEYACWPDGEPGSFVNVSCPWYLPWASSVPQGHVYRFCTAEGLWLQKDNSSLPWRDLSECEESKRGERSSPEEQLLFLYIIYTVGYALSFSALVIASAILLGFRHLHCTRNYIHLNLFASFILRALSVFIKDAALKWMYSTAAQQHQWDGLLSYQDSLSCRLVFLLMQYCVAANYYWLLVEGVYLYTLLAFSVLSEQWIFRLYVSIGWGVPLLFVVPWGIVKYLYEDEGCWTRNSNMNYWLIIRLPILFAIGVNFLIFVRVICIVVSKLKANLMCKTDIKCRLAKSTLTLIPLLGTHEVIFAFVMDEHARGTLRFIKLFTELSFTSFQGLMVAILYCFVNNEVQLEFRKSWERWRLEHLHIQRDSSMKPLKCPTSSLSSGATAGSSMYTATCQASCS

Chain of hGLP-1R (P43220 24-463): as above
Chain of human glucagon receptor (human) (P47871 26-477): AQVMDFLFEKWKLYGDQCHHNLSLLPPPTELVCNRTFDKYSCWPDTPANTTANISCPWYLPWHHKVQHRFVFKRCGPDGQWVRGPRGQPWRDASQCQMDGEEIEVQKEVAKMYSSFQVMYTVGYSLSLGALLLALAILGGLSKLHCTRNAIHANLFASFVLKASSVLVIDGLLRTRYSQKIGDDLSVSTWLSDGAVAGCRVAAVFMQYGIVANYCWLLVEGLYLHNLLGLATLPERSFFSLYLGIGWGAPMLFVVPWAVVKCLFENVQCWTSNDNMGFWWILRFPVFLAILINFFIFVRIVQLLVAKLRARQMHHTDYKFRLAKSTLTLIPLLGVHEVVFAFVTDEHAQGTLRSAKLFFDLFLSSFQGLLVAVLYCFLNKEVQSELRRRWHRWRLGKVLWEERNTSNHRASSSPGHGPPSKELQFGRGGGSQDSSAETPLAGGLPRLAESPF

Row | Binder | Relative cAMP EC50 (hGLP-1R) [nM] | cAMP Rel EC50, nM (in the presence of 1% HSA) (hGLP-1R) [nM] | Relative cAMP EC50 [1] [nM] | cAMP Rel EC50, nM (in the presence of 1% HSA) [1] [nM] | Relative cAMP EC50 [2] [nM] | cAMP Rel EC50, nM (in the presence of 1% HSA) [2] [nM] | GLP1R Internalization EC50 [3] [nM] | Internalization % TOP [3] [%] | cAMP Rel EC50, nM (1% HSA) (hGLP-1R) [nM] | cAMP Rel EC50, nM (1% HSA) [1] [nM] | cAMP Rel EC50, nM (1% HSA) [2] [nM] | cAMP Rel EC50 (1% HSA) (hGLP-1R) [nM] | cAMP Rel EC50 (1% HSA) [1] [nM] | cAMP Rel EC50 (1% HSA) [2] [nM]
1 | B1 | 2.99 | 821 | 2.45 | 627 | 0.102 | 19.8 | 28.3 | 42.5 |  |  |  |  |  | 
2 | B2 | 5.06 | 878 | 4.25 | 1260 | 0.0888 | 10.4 | 49.1 | 46.4 |  |  |  |  |  | 
3 | B3 | 4.61 |  | 2.1 |  | 0.281 |  | 49.6 | 74.4 | 826 | 957 | 103 |  |  | 
4 | B4 |  |  |  |  |  |  | 50.4 | 73 | 376 | 987 | 46.3 |  |  | 
5 | B5 |  |  |  |  |  |  | 73.5 | 43.4 |  |  |  |  |  | 
6 | B6 | 8.5 | 1110 | 10.8 | 1690 | 0.426 | 61.3 | 150 | 45.1 |  |  |  |  |  | 
7 | B7 | 3.93 | 467 | 12 | 2090 | 0.24 | 32.3 | 39.5 | 64.6 |  |  |  |  |  | 
8 | B8 | 0.707 |  | 6.77 |  | 0.223 |  | 28.3 | 96.8 |  |  |  | 171 | 2070 | 72.1
9 | B9 |  |  |  |  |  |  | 35.3 | 109 |  |  |  |  |  | 
10 | B10 |  |  |  |  |  |  | 11.8 | 113 |  |  |  |  |  | 
11 | B11 |  |  |  |  |  |  | 21.8 | 97.3 |  |  |  |  |  | 
12 | B12 | 5.86 |  | 5.28 |  | 0.45 |  | 214 | 66.1 | 989 | 1470 | 78.3 |  |  | 
